Data taken from the domain aggregation screens of Martell et al. (2025).

Test: soluble fraction after stress (log2 fold change); higher = more stays soluble; pooled small domains, quantitative proteomics
Details: stress: 50 degC
How it was run: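 The stress applied to every library was 50°C. These custom libraries of small protein domains were pooled and measured at high throughput with quantitative proteomics as the read-out. Aggregation propensity is expressed as the base-two logarithm of the fold change in how much of each protein remains soluble. The higher the value, the more of that protein stays in solution.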

“HMNEGETLYRLRAGDGRARLDKFLAAALPDISRTRFKGLIESGHVRVGGETITEPAYRVKSEAEVELTVPE” and “HMNEIALETAIEDVESFIQMQNRNLAFSIDEDTDRAVVTVRDSDSGDVIRQIPSEEVLALAERIQDLQQD” are within 0.2 log units of each other in “soluble fraction (log2)” value: 0.0139 for the first, 0.136 for the second.

Going from “HMNEIDDYDIQLLEYLSKGVSQEAMESVFKQAGITPNSKSTIEKRISKLKIYFKALNTTHLVSITKDLGL” to “HMNEKEAEEAAEAQTEVPDVTGMAPAQAKNMLYQAGLSSEYRGEGETVSRQLPPAGETVNRGTKAVLYL”, the “soluble fraction (log2)” value rises from -0.642 to 0.0278.

“HMNEKGTNSTINEITRISKPGRRVYVGSAEIPKVKSGRGLVLISTSKGVMTGAEAAKAKLGGELLLKV” and “HMNEKMKEIGLRIKELRELSDISAQGMADHLKIPLETYQEYEDGKKDIPASILFEISQKMEVDMGLLLTGE” are within 0.2 log units of each other in “soluble fraction (log2)” value: 0.0901 for the first, -0.0988 for the second.

First: HMNELTDKQILLFSNKLAHNIPFSSKYSKPGESYEEFAERLANELIDPQKVKLYKPYLEEVGFK
Second: HMNEMIFNQKKIGQFFMNPETNSPMIYPLELGHKMKIIELKNGWYNVTDEKTGLNGWVKEEDFGVTKPLDS
The “soluble fraction (log2)” value of the first is higher: 0.302 for the first, -0.205 for the second.

“HMNENDENLRQQAIDASKEVRRWGEPVTLPPMNAHDRRIIHITLEGESDLQTESTGEGNFKSVVISLK” and “HMNEPSSYGYAISVALDRNGLGTVKGGTLYPLLARLEQAAHVETRWEAGDGGPGRKYYTITDSGRS” are within 0.2 log units of each other in “soluble fraction (log2)” value: -0.111 for the first, -0.201 for the second.

“HMNERLKQLRLSLNLNQEEFGKWLGISKSGVSDIESGRRKVTEQHIIMLSNHNISEKWLRTGEGEMFV” and “HMNETNKMPNLVNQTDSSAIAQLNAMELGLKITTKEESSETVLAGYVIRTEPAADTELTKNQAVTVYVS” are within 0.2 log units of each other in “soluble fraction (log2)” value: -0.0803 for the first, 0.00616 for the second.

“HMNETTVPDVINQNISTGKIIIEDADLEYRIQYIPSEKSSSIGTIINSIPIYGKRVKSGTIVDLKVLG” and “HMNETVTNQTVLDLLKEGFTSEEIIGAIENSSTRTITYDINFMRQLKAAGADVTLTTYLQKIAKKDM” are within 0.2 log units of each other in “soluble fraction (log2)” value: -0.0142 for the first, -0.13 for the second.

“HMNEWSIDINLADEKQWTAKTKLSPAIIQNIIRYKNYLGGFTNLNQIKKVYGFTEANYYLLKPHLQLGK” and “HMNFDLDSFKQRMTLDGLYFGNEKQDVIALNNLSERYQLTWFDVYQLAKETSSNHKILPKRILVKLQQ” are within 0.2 log units of each other in “soluble fraction (log2)” value: -0.909 for the first, -1.07 for the second.

Going from “HMNFEIEVTENGKRIDSYLAEELDLSRSKVQKLIKQELVTVNGKVVSNNYNVKLGDTILVNDD” to “HMNFFQEIGNSILIELNKKNWTQSMFAHKIGVSDEVFKQIVQGKKALNAVEIAKIANTLDVDPEKLLRK”, the “soluble fraction (log2)” value falls from 0.0352 to -0.191.

“HMNFTEAEQRFHFLEDQRQRGVLSLEQYRAELAQLRVTDAWGRLWMLQEQTGQWFVFHEGQWRPSQ” and “HMNGEDVTDAIRLPQISQYASVVSAYPGVRAFLLEMQRDFARKGSVIMDGRDIGTVVLPEAEVKIFLT” are within 0.2 log units of each other in “soluble fraction (log2)” value: -0.124 for the first, -0.025 for the second.

First: HMNGGPHYLRDVRTSLGLSQADLAKAVGTSANMIHYLESGERALTLKWIRRISEALNVSPMRLIN
Second: HMNGLPDLSRYTGVSIVDGLASVGSDSSFAYRAKIAETLGISDYKGSAGQNLEMIRKLGGKV
The “soluble fraction (log2)” value of the first is lower: -1.6 for the first, -0.291 for the second.

Going from “HMNGTGSVYKLSGKRRNPWRAVVTNGWAYNEEKGKLVQNRVTIGYYHTRDEAIQAIANYNSSP” to “HMNGVFIMHTPDGKVLRTEEGEEAVITLFNWSGQLLWSKTSLGQLPLPEGTQGVLQVQYKSGDQHTIKT”, the “soluble fraction (log2)” value rises from -1.52 to -0.267.

Going from “HMNHAPSLMRKIRRGLKEGRNPDDLLVNAKSISDYYYRSLSFYLLAPHFSSKSKQYKQVISLANS” to “HMNHHTEQQLKALSNKVKDHRMRMRLLAVAHFKAGKNKADVARTLNVSRRMVNEWVANYFKGGVSALES”, the “soluble fraction (log2)” value falls from 0.036 to -3.6.

First: HMNHLLYPNPANNFIWIKNSTSNTAVIYNLQGVMSKVEVSEEGKIDISRFSPGLYMIKQGERIYKFTIA
Second: HMNHLSYEQRLKIKEMLDGGFKKIDIARALGVHNATIYREIERGSVNGIYNPNKSEEQYRDHLSEK
The “soluble fraction (log2)” value of the first is lower: -1.34 for the first, 0.255 for the second.

Compared with “HMNHYIGVDRAKEIALNHANLSETDVVFTKEKLENDDGGAEYEIEFHSGRTEYDYTIDAASGNIIEYDVDY”, “HMNIDGLIGKKALVTADIDNVNSKGQIKINGLEWTARSVDDEPIPMGTEVEITAISGVKAIVRKG” is lower in “soluble fraction (log2)” value: 0.421 for the first, 0.168 for the second.

First: HMNIEANLEDILRRAMPSAAKLILENSLNINKIIGTGKEGRITKGDVLLYLKDKNLILENILN
Second: HMNIEEAESILKEIKTVLTDKEYEVYTLRAKGFTYQEIASLLNTTTKSVDGALSRIKTKINNIK
The “soluble fraction (log2)” value of the first is lower: -0.173 for the first, 0.0839 for the second.

First: HMNIFKLYEENIGPLTPMIADILKEDEAEFPDYWIREAIEIAVKKNARNWKYVHAVLESWQKE
Second: HMNILKAPMPGLILDVIVKESDLVKKGDPVIILEAMKMENILSSPVDGIVKEIKVNPQQTVEKNNTLIKFE
The “soluble fraction (log2)” value of the first is lower: -3.38 for the first, -0.0546 for the second.

“HMNILNFSENIIKLRHKKGITQEELADFVGVTKASVSKWETKQSLPDIMLLPRLAAYFDVTVDELLGYEP” and “HMNINHEINIKSKKKISILENNPNLSQFYLTKNPDQYNYNLVFSDKSELNKLKEKLESDNEVEDIDIRYG” are within 0.2 log units of each other in “soluble fraction (log2)” value: 0.0236 for the first, 0.06 for the second.

“HMNINTEMEKVSYSLGVNIASSLKQQGWELDAKSLSDAFVDVFNGNKLLIDEKEASSILQNYQQKIANK” and “HMNIQKYFAGREQFIELLEAVGIRTLEQFASADPSTVLPELHQAKRMLKLQTEIPSAPVFREWVNQALS” are within 0.2 log units of each other in “soluble fraction (log2)” value: -0.144 for the first, -0.237 for the second.

Compared with “HMNIQPAMLNAANGGVAWKERGISMSQIMKRNAHTAEGSQKLWDYAFENFFQKNIDAGNIRDDR”, “HMNIVKGDTTANVRVVQQRLYNLGYYTYKVDGIWGTRTKTAVKKFQKDKGLVADGIVGAKTEKALGITLT” is lower in “soluble fraction (log2)” value: 0.0644 for the first, -1.29 for the second.

First: HMNIVVSSIDSNSFEIVNKETGEQAVISYDKETKKGFVLINGVKKEFFQDGNKVYYDGYVIAE
Second: HMNKDEFLNELKSYLSILEDEEQADILEEYTQHIDMKISTGLSEAEAIRDFGNVSELAAQILEAY
The “soluble fraction (log2)” value of the first is higher: 0.227 for the first, -0.222 for the second.

First: HMNKIGTIVSINGPIVKTAGDVGFVMHEMVYVGKEKLVGEVIGLTTDFTIVEVYEETSGIKPGETIEGT
Second: HMNKKEIISVLEKIIPPSQIKNINIFGSELVIDLNIDNPSLHAKKKLEKSIMSSFDENLKIIVNFSVE
The “soluble fraction (log2)” value of the first is lower: -1.5 for the first, -0.00924 for the second.

Going from “HMNKLSISALAETVSTKRKEKSMTQQDLSDATGINRALISRLEQKDFIPSIPQLEKLEEILGFELEEVF” to “HMNKMHKLPSVSEILNKVRLQKIHNESFIKFKIKEEIDRYRKLAKKDQLFLSRDEITYEIIEKLLNFSMPS”, the “soluble fraction (log2)” value falls from -0.0428 to -2.57.

Going from “HMNKMIDAPDLTGLSLEDAKLVLEANKLQLGTVSHEPSDKPEDVVISQDPMEGQEIQQGGKVNLVVSYGD” to “HMNKNNLRNVSSKIRKSRRVLNLSQAELSKKLDISPSYLNLIESGKRPITVPLLIKLGNILGISLKDL”, the “soluble fraction (log2)” value falls from -0.0696 to -1.27.

Going from “HMNKNQIGTNAGIVWKLLSDNVHWEYDKLKHASGLSDRDLNAAIGWLAREDKIDFDIDEQHDRLFL” to “HMNKPKIIINSVDDSVFSDYVKDSLSIAEVARSIGIDNNKINTSVYREIHKRIDSLKLDTSHFTGGAWN”, the “soluble fraction (log2)” value rises from -0.395 to -0.174.
